Reference: the DeepSol protein solubility set

Assay: soluble on expression in E. coli; label from the status in PepcDB or PDB records

| Sequence | soluble on expression in E. coli |
| --- | --- |
| MVAATPVQFVLPPLPEAPTAAAARLDGLSLADSGGGAGVRTVRLREALYGAGPYESADASMAELAAQIASLDRDKARSALAAVWQATVLGRPNRAANQVALAAAGGVLLLVDVAVQRLAGVRLEGGARSCSREDEEEAVMALLVLENLSCNVSLHRDMVLGAPGPHLLQMLVALAKDNTAAAAVRVNAAKVLVNLTFSQIELAAAATEAGALPAAVSLLQAGQKQALAETDAEVALGLHRQGAWLLSHLTAGQGCQARELLAAQPQALARIKDLLTTSRDTATLIRCCEVVCNLARGDVGPHAELIRAGLVQVLLKLVEVETEAPAPTGAARSEGSSVDLLLPALTALAALAAGGAACARGLLAHAPLLRTLTGALEWSNLISRDHDLSRVMLAAHSLVYVLGRFALRNRIVVPGVRAGVVVDAGMGATPAAATPQAQQVLQESGYVSFAAAMAALGLQQPRYTAAILGTELESGPHSAVASAAYQVNTELLPMMRHDNARMVVNTCARLYQIAVCLRDSPECRSVLSNTSLSLALSDLLRSQHSSVLQAALCLTDALAALPEVVPQLAANGVLDRLCDLLHNTSAQPQEHKAGTADTAGDPLVVLLAERALVTMFLTRGQHQAE | not soluble |
| MSLKTLLFDVDDTLLDFKLAEKKALHALFEEENVPFTSEVESTYHRINQGLWRSFEEGKITKDVLLDTRFGLLFDAFNREVDSVKMGENYREYLSQGHDLLGNSQRILEKLAPHYDLYIVTNGVAKTQYRRLEDSKLMPYFKDIFVSEEVGYQKPMKEYFDFVFERIPNFSREKTMIIGDSLHSDIQGGQQAKIQTVWLNPTSAPATPTIQPNYTIQQLDELLPILGHEGHHHHHH | soluble |
| MSLERTTHQSLNGSWQFQPVAATLHVTPQLQAPAGGWKKINVPDNWYRQGHDISGYAWYQTRFALDAHNASRVAHLVFHGVDYSADVWLNDRYLGHHTGYFQPFEFDVTGLVKPGENQLRVLVNSPLEQPQDWSLHKRLVKGIFSHHDTRPGGAWSERGQEKNTGGIWAPVELQFADRAAVRQLQVTPRKQATEANPQQWVVSTEADIHHDVSHETSVTVEARILPENFKGASFAFKQSQTLQPGGNHIAFSFPVDNPALWWPYEYGHPNLYRLELSVKDASGKLLDQREQVFGVREVKVDDGLQWFINGRRMFLRGTNYIASQWLAEMTPDRYRRDLEMMQAAHINAVRVHAHVTGQDFYELCDRMGILVTQDFPLLWGYSDDPDFIAEARRQAKDMVQLLQRHPSIISWTMHNEPPWDSPWMAQKYPDYHPDINRRLDALLYEDVSKLDTLRVVRKESATKEHEWMGWYFDHWLAFSRPAPTPWSTEFGAQALPNLKSLERMFSKALLWPDTEAKWQVWEYHNFQRKETFEFAGVKQGGNIEEFIANSQHYQARLIQFAVENYRRQRYAPVSAVFQFMFVENWPSINWGIVDYWREPKAGYEALRVAYQPVLPSLEWKEGHHHHHH | not soluble |
| MSLDVQSDIVAYDAPKKDLYEIGEMPPLGHVPKEMYAWAIRRERHGEPDQAMQIEVVETPSIDSHEVLVLVMAAGVNYNGIWAGLGVPVSPFDGHKQPYHIAGSDASGIVWAVGDKVKRWKVGDEVVIHCNQDDGDDEECNGGDPMFSPTQRIWGYETPDGSFAQFTRVQAQQLMKRPKHLTWEEAACYTLTLATAYRMLFGHKPHDLKPGQNVLVWGASGGLGSYAIQLINTAGANAIGVISEEDKRDFVMGLGAKGVINRKDFKCWGQLPKVNSPEYNEWLKEARKFGKAIWDITGKGINVDMVFEHPGEATFPVSSLVVKKGGMVVICAGTTGFNCTFDVRYMWMHQKRLQGSHFANLKQASAANQLMIERRLDPCMSEVFPWAEIPAAHTKMYRNQHKPGNMAVLVQAPRTGLRTFADVLEAGRKEGHHHHHH | soluble |
| MISTPLSKEFEWPAKPVSLELQHQVEQFYYREAQLLDHHAFQAWFALLAEDIHYWMPIRTVRTAREQGLEYVPAGANAHFDDTHATMYGRIRQKTSDLNWAEDPPSRTRHLVSNVIVREMDTPGTLEVASAFLLYRSRLERQVDVFAGERRDVLRIADNPLGFQIAKRTIILDQSTVLANNLSVFF | soluble |
| MGSDKIHHHHHHMMNLSELAPDYIRAIQPYQPGKPISELVRDLGLNKDEVVKLASNENPLGTSPLAKEAMIQALNESARYPDGSGFELKAALSERLGMPADQIVLGNGSNDVLELATRIFLHPDSTAIYSQYAFAIYPLLAQAVGARGIAVPARNYGHDLEAMLAAVTPETRIIFIANPNNPTGTLCDARDLLRFMERVPQDVLVILDEAYDEYLPEANKANSIAWLKNFQNLVITRTFSKAYGLASVRVGFALAHADIANLMNRIRQPFNVNSIGLAAAQAALKDVEFVKLAYMTNRTGMQQMTHGLDQLGIEYIPSFGNFVCCHIDGHPANTLKIYRNLLQQGVIVRPLGNYDMLNHLRVTIGIEEENKRFLQALEQALKELD | not soluble |
| MGSDKIHHHHHHVKLHVIHYNDLHSHFDMWPRYMSFMKEHRTYDSLVFDLGDHADRVAPATEATQGKINTHLLNELSPTAVTIGNNEGITFPHDWLAELYSDATFPVLVSNLSAPFAKAGMIQELPTGKVGIFGLTAPYYELYELLGWSIENPFEAAAREIEALRDQVDVLICLSHLGFYQDEDLAERFPELDLIIGSHTHHVLDDGVVRNGVLIAQAGKHGQYAGEIYLNTDTGEKEAVLHPLESYPEDEATAVLLDKEQYLAERQMKQPIGRTSGLANDWFNPSPFTQLLADTMRDWCQADLACVPAGMLLGSLSPGPVSSYDLHRLCPHPINPCKVTMTGKELKQFIAEVDTNRFEQLKVRGLGFRGKLMGKMHYAGNRQHLDDAKHYTVVLPDMFTFGPLFPEIKEMPKEYFMPELLRDLLFDRLSEKSEFGELPIRKH | not soluble |
| VNVLKKDITASPVLSETAPTSAPSEAAAANEIKQPIPSQKAEMSELKKLTDIISPELIEPNLVGETSDDIIDELIQKLSRRGALLSESGFKQAILNREQQGTTAIGMNIAIPHGKSEAVREPSVAFGIKRSGVDWE | not soluble |
| MSLKISHIDLGEHPILLAPMEDVTDPAFRLMCKKFGADMVYTEFVSSDALIRAVSKTAQKLSISDEERPVAIQIYGKDTETMVEAAKIVEQAQPDILDINFGCPVKRVAGKGAGAGMLQNIPKMLEITRAVVDAVKIPVTVKTRLGWDANNKIIVDLAEQLQDCGIAALTIHGRTRAQMYTGEADWTLIGEVKNNQRMHIPIIGNGDVTTPQRCKECFDRYGVDAVMIGRASFGRPWIFKEVKHYLETGEELPPLSFEWCMEVLRQEVIDSVNLLDERRGILHVRRHLAASPLFKGIPNFKETRIAMLRAETKEELFRIFETIPEKVNSLLDEGHHHHHH | soluble |
| MSTENTLSVADLARENVRNLVPYQSARRLGGNGDVWLNANEFPTAVEFQLTQQTLNRYPECQPKAVIENYAQYAGVKPEQVLVSRGADEGIELVIRAFCEPGKDAILYCPPTYGMYSVSAETIGVERRTVPALENWQLDLQGISDNLDGTKVVFVCSPNNPTGQLINPQDLRTLLELTRGKAIVVADEAYIEFCPQATLTGWLVEYPHLVILRTLSKAFALAGLRCGFTLANEEVINLLLKVIAPYPLSTPVADIAAQALCPQGINAMRDRVAQTVQERQYLVNALQQTACVEHVFDSETNYILARFTASSSVFKSLWDQGIILRDQNKQPSLSGCLRITVGTRQENQRVIDALRAEPV | not soluble |
| GMAEQMRRVARLFGDWPETIIWTCLEGTMGDIYVDDSQSPQSALALYGRQSFFGFLAGQPHRDLLKICEGKNIILVPQNQAWSDLIEEVYGDGVRFFTRYATKKDTEFDLGHLQKLVDDLPESFDMKLIDRNLYETCLVEEWSRDLVGNYIDVEQFLDLGLGCVILHKGQVVSGASSYASYSAGIEIEVDTREDYRGLGLAKACAAQLILACLDRGLYPSWDAHTLTSLKLAEKLGYELDKAYQAYEWR | soluble |
| MLKVESISKDYREFKLREISFDVREGEHFIILGPSGSGKTVLLEIIAGIISPDRGRILLRGEDITGLPPEKRNFSYIPQNYALFPHMTVFDNIAFGLKLRKIPRKEVARKVREVAESLGIDHLLHRKPRTLSGGEQQRVAIARALVVKPELLLMDEPFANLDVQTKSKLIREMKRWRKEFGFTAIHVTHSFEEALSLGDRVGIMLRGRLVQVGDVRDVFSKPKSEEVARFLGFENIIEGVANGRILKVGDLRIELPREVWGKVRVGIRPEDITIFMEGVKTSARNVFKARVEGIEDLGALVKLTLNLGGIILRAFITRSSLIELGIREGEEVYASFKASAIHVFP | soluble |
